Test results: PMC10148881, “Recognition of an Ala-rich C-degron by the E3 ligase Pirh2” (Nature Communications, 2023)
pKd: −log10 of the molar value.

Target: Ala6/C-degron peptide (sequence: …)
Assay: ITC

pKd: 4.40
Substance: WT Pirh2 I110D
